Data on 19 variants can be found in the RNAGym collection of RNA variant scans (doi:10.1073/pnas.2313332121).

Variants at the floor of the assay were thinned out. A value given as a limit tells only on which side of the number the result lay.

B1: TPR 5TU (parent)
chain: GGAUCUUCUCGAUCUAACAAAAAAGACAAAUCUGCCACAAAGCUUGAGAGCAUCUUCGGAUGCAGAGGCGGCAGCCUUCGGUGGCGCGAUAGCGCCAACGUUCUCAACUAUGACACGCAAAACGCGUGCUCCGUUGAAUGGAGUUUAUCAUG

This data set covers variants of B1. As to the kind of experiment: polymerase ribozyme fitness, log enrichment relative to wild type (log ratio); higher = more active; in vitro selection for triplet polymerase activity. In outline:
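Frozen incubation at −7 °C formed the core of a single, triplicate in vitro selection round applied to PCR-built, transcribed mutant libraries of each subunit of a heterodimeric triplet polymerase ribozyme. Extended constructs were gel-excised, captured with streptavidin beads and amplified by RT-PCR, and input and output libraries were Illumina-sequenced with a filter of ≥10 input reads and ≥1 read per output. Fitness is the logarithm of genotype enrichment relative to wild-type enrichment, with inverse-variance-weighted replicate averaging, and the logarithm is base 2.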
For GGAUCUUCUCGAUCUAACAAAAAACACAAAUCUGCCACUAAGCCUGAGAGCAUCUUCGGAUGCAGAGGCGGCAGCCUUCGGUGGCGCGAUGGCGUCAACGUUCUCAACUAUGACACGCAAAACGCGUGCUCCGUUGAAUGGAGUUUAUCAUG, the “polymerase ribozyme fitness (log ratio)” value was no more than -4.2.
Consider GGAUCUUCUCGAUCUAACAAAAAACACAAAUCUGCCACAAAGCUUGAGAGCCUCUUCGGAUGCAGAGGCGGCAGCCUUCGGUGUCGCGAUAGCGCCAACGUUCUCAACUAUGACACGCAAAACGCGUGCUCCGUUGAAUGGAGUUUAUCAUG, for which the “polymerase ribozyme fitness (log ratio)” value is no more than -4.2.
GGAUCUUCUCGAUCUAACAAAAAACACAAAUCUGCCACAACGCUUGCGAGCAUCUUCGGAUGCAGAGGCGGCAGCCUUCGGUUGCGCGUUAGCGCCAACGUUCUCAACUAUGACACGCAACACGGGUGCUCCGUUGAAUGGCGUUUAUGUUA: the “polymerase ribozyme fitness (log ratio)” value was no more than -4.2.
For GGAUCUUCUCGAUCUAACAAAAAAUACAAAUCUGCUACAAAGCUUGAGAGCAUCUUCGGAUGCAGACGCGGCAGCCUUCGGUGGGGUGUUAGCGCCAACGUUCUCAACUAUGACACGCAAAACGCGUGCUCCGUUGAAUGGAGUUUAUCAUG, the “polymerase ribozyme fitness (log ratio)” value was no more than -4.2.
Next, GGAUCUUCUCGAUCUAACAAAAAACACAAAUCUGCCACAAAGCUUGAGAGCAUCUUCGGAUGCAGAGGCGGCAGCCUUCGGUGGCACGAUAGCUCCAACGUUCUCAACUAUGACACGCAAAACGCGUGCUCCGUUGAAUGGAGUUUAUCAUG: -3.91; GGAUCUUCUCGAUCUAACAAAAAACACAAAUCUGCCACAAAGCUUGAGAGCAUCUUCGGAUGCAGAGGCGGCAGCCUUCGGUGGCGCGAUAGCACCAACGUUCUCAACUAUGACACGCAAAACGCGUGCUCCGUUGAAUGGAGUUUAUCAUG: -3.16.
For the variant GGAUCUUCUCGAUCUAACAAAAAAUACAAAUCUGUCACAAAGCUUGAGAGCAUCUUCGGAUGCAGAGGCGGCAGCCUUCGGUGGCCCGAUAGCGCCAACGUUUUCAACUAUGACACGCAAAACGCGUGCUCCUUUGAAUGGAGUUUAUCAUG, the “polymerase ribozyme fitness (log ratio)” value was no more than -4.2.
Take GGAUCUUCUCGAUCUAACAAAAAAUGCAAAUCUGCCACAAAGCUUGAGAGCAUCUUCGGAUGCAGAGCCGGCAGCCUUCGGUGGCGCGAUAGCGCCAACGUUCUCAGCUAUGACACGCAAAACGCGUGCUCCGUCGAAUGGAGUUUAUCAUG: the “polymerase ribozyme fitness (log ratio)” value was no more than -4.2.
The same measure for GGAUCUUCUCGAUCUAACAAAAAACACAAAUCUGCCACAAAGCUUGAGAGCCACUUCGGAUGCAGAGGCGGCAGCCUUCGGUGGCGUGAUACCGCCAGCGUUCGCAAGUAUGACACGCAAAACGCGUGCUCCGUGGAAUGGAGUUUAUCAUG: no more than -4.2.
The same measure for GGAUCUUCUCGAUCUAACAAAAAACACAAAUCUGCCACAAAGCUUGAGAGCAUCUUCGGAUGCAGAGGCGGCAGCCUUCGGUGGCGCGAUAGCGCCAACGUUCUUAACUAUGACACGCAAAACGCGUGCUCCGUUGAAUGGAGCUUAUCAUG: -2.67.
Next, GGAUCUUCUCGAUCUAACAAAAAAUACAAAUCUGCCAUAAAGCUUGAGAGCAUCUUCGGAUGCAGAGGCGGCAGCCUUCGGUGGCGCGAUAGCGCCAACGUUCUCAACUAUGACACGCAAAACGCGUGCUCCGUUGAAUGGAGUUUAUCAUG: -1.98; GGAUCUUCUCGAUCUAACAAAAAACACAAAUCUGCCACAAAGCUUGAGAGCAUCUUCGGAAGCAGAGGCGGCAGGCUUCGGUGGCGCGAUGGCGCCUACGUUCUCAACUAUGACACGCAAAACGCGUGCUCCGUUGAAUGGAGUUUAUCAUG: -4.05.
GGAUCUUCUCGAUCUAACAAAAAACACAAAUCUGCCACAAAGCUUGAGAGCAUCUUCGGAUGCAGAGGGGGCAGCCUUCGGUGGCGCGAUAGCGCAAAUGUUCUCAACUAUGACACGAAAAACGCGUGCUCCGUUGAAUGGAGUUUAUCAUG: the “polymerase ribozyme fitness (log ratio)” value was no more than -4.2.
Next, GGAUCUUCUCGAUCUAACAAAAAACACAAAUCUGCCACAAAGCUUGAGAGCAUCUUCGGAUGCAGAGGCGGCAGCCUGCGGUGGCGUGAUAGCGCCAACGUUCUCAACUAUGACACUUAAAACGCGUGCUCCGUUGAAUGGAGUUUAACAUG: no more than -4.2.
Next, GGAUCUUCUCGAUCUAACAAAAAAUACAAAUCUGCCACAAAGCUUGAGAGCAUCUUCGGAUGCAGAGGCGGCAGCGUUCGGUGGCGCGAUAACGCCAACGUUCUCAACUAUGACACGCUAAACGCGUGCUCCGUUGAAUGGAGUAUAUAAGG: no more than -4.2; GGAUCUUCUCGAUCUAACAAAAAACACAAAUCUGCCACAAAGCUUGAGAGCAUCUUCGGAUGCAGAGGCGGCAGUCUUCGGUGGCGCGAUGGCGCCAAAGUUCUCAACUAUGACACGCAAAACUCGUGCUCCGAUGAAUGGAGUUUAUCAUG: no more than -4.2; GGAUCUUCUCGAUCUAACAAAAAAUACAAAUCUGCCACAAAGCUUGAGAGCCUCUUCGGAUGUAGAGGCGGCAGCCUUCGGUGGCGCCAUAGCGCCAACGUUCUCAACUAUGACACGCAAAACGCGCGCUCCGUUGAAUGGAGUUUAUCAUG: no more than -4.2.
The same measure for GGAUCUUCUCGAUCUAACAAAAAAUACAAAUCUGCCACAAAGCUUGACAGCGUGUUAGGGUGCAGAGGCGGCAGCCUUCGGUGGCGCGAUAGCGCGAACGGUCUCAACUAUGACACGCAAAACGCGUGCUCCGUUGAAUGGAGUUUAUCAUG: no more than -4.2.
As to GGAUCUUCUCGAUCUAACAAAAAAUACAUAUCUGCCACAAAGCUUGAGAGCAUCUUCGGAUUCAGAGGCGGCAGCCUUCGGUGGGGCGAUAGCGCCAACGUUCUCAACUAUGACACGCAAAACGCGUGCUCCGUUGAAUGGCGUUUAUCAUG, the “polymerase ribozyme fitness (log ratio)” value was no more than -4.2.
